# Source: patent publication US12698507B2, “Methods and compositions for conferring and/or enhancing herbicide tolerance using protoporphyrinogen IX oxidase of various cyanobacteria or variant thereof” (FarmHannong Co., Ltd., priority 2019, dated 2026)
# Positions count from the first letter of the chain named. In names and notes the source's numbering stands.
# B1: CyPPO19 R89A + V165S + I408R + F360L: variant of CyPPO19 PPO protein (SEQ ID NO: 1) (protein)
# chain: MSEVDVAIVGGGLSGLSLAWRLQQSAPQYSVVLLEASDRLGGNITTQTAEGFVWELGPNSFAPTPALLQLIAEVGLQSELIRGDRHLPAYIYWRGQLYPLQPTRPLALATSNLLSPWGKVRAALGALGFVPPYLGSGDESVNSFFRRHLGQEVAERLVAPFVSGSYAGDPQQLSAAAAFRRIAQLEKLGGGLIAGALHLRRQQAPKPKPPTSVQMRPGELGSFKEGLAALPRAIAQQLKAPIHLQTPVQEITPDPKGGYLLRSGEQTWRARSVVLATPAYQTAELVAPFQPAIARVLATIPYPTVACVVLAYPAGLGRSVRPGFGVLIPRSQGIRTLGTIWSSCLFPQRTPAGWQVFTSLIGGATDPDLASLSEEAIVQQVQQDLNRLLDLPAAKARLLGMKVWRRARPQYMVGYPEQWQQVTHALSQTPGLFLCSNYAEGVALGDRVEHGNRTAAAVAAYLSGGQP
# modifications: Synthetic_PPO of Thermosynechococcus elongatus PKUAC-SCTE542 (comprising GenBank No. CP032152.1)
# B2: CyPPO19 R89A + A167L + V305L + F360T: variant of CyPPO19 PPO protein (SEQ ID NO: 1) (protein)
# chain: B1 chain with S165V, A167L, V305L, L360T, R408I
# modifications: Synthetic_PPO of Thermosynechococcus elongatus PKUAC-SCTE542 (comprising GenBank No. CP032152.1)
# B3: CyPPO19 V165S + A167C + L327T + F360M: variant of CyPPO19 PPO protein (SEQ ID NO: 1) (protein)
# chain: B1 chain with A89R, A167C, L327T, L360M, R408I
# modifications: Synthetic_PPO of Thermosynechococcus elongatus PKUAC-SCTE542 (comprising GenBank No. CP032152.1)
# B4: CyPPO19 V165C + A167I + V305M + F360V: variant of CyPPO19 PPO protein (SEQ ID NO: 1) (protein)
# chain: B1 chain with A89R, S165C, A167I, V305M, L360V, R408I
# modifications: Synthetic_PPO of Thermosynechococcus elongatus PKUAC-SCTE542 (comprising GenBank No. CP032152.1)
# B5: CyPPO19 R89A + A167C + I408R + F360M: variant of CyPPO19 PPO protein (SEQ ID NO: 1) (protein)
# chain: B1 chain with S165V, A167C, L360M
# modifications: Synthetic_PPO of Thermosynechococcus elongatus PKUAC-SCTE542 (comprising GenBank No. CP032152.1)
# B6: CyPPO19 V165S + F360V: variant of CyPPO19 PPO protein (SEQ ID NO: 1) (protein)
# chain: B1 chain with A89R, L360V, R408I
# modifications: Synthetic_PPO of Thermosynechococcus elongatus PKUAC-SCTE542 (comprising GenBank No. CP032152.1)
# B7: CyPPO19 R89A + A167L + L327T + F360I: variant of CyPPO19 PPO protein (SEQ ID NO: 1) (protein)
# chain: B1 chain with S165V, A167L, L327T, L360I, R408I
# modifications: Synthetic_PPO of Thermosynechococcus elongatus PKUAC-SCTE542 (comprising GenBank No. CP032152.1)
# Tested on: PPO-deficient BT3 E. coli (ΔPPO)
# Test: PPO-inhibiting herbicide tolerance test of PPO variants in E. coli (growth on herbicide-containing LB agar)
# Type: cell-based
# Settings: CyPPO19 variants in BT3 (ΔPPO) E. coli; LB agar with 0 to 2,000 μM herbicide, 37° C., dark, 16-20 hours
# How it was run: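 PPO-deficient BT3 E. coli expressing each variant from pET303 were diluted to OD600=0.5, then 10-fold serially, and spotted on LB-ampicillin agar with 0 to 2,000 μM herbicide. After 16-20 h at 37° C. in the dark, growth relative to wild type was scored from '−' (equivalent) to '+' per 10-fold resistance, max '+++++'.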
Molecule,"tolerance level relative to wild type, Carfentrazone","tolerance level relative to wild type, Flumioxazin","tolerance level relative to wild type, Fomesafen","tolerance level relative to wild type, Oxyfluorfen","tolerance level relative to wild type, Saflufenacil","tolerance level relative to wild type, Sulfentrazone","tolerance level relative to wild type, Tiafenacil"
B1,+ (‘+’ per each 10-fold resistance),++++ (‘+’ per each 10-fold resistance),++ (‘+’ per each 10-fold resistance),++ (‘+’ per each 10-fold resistance),++++ (‘+’ per each 10-fold resistance),+++ (‘+’ per each 10-fold resistance),++++ (‘+’ per each 10-fold resistance)
B2,+ (‘+’ per each 10-fold resistance),++ (‘+’ per each 10-fold resistance),++ (‘+’ per each 10-fold resistance),++ (‘+’ per each 10-fold resistance),+++ (‘+’ per each 10-fold resistance),++ (‘+’ per each 10-fold resistance),+++ (‘+’ per each 10-fold resistance)
B3,+ (‘+’ per each 10-fold resistance),++++ (‘+’ per each 10-fold resistance),++ (‘+’ per each 10-fold resistance),++ (‘+’ per each 10-fold resistance),++++ (‘+’ per each 10-fold resistance),++++ (‘+’ per each 10-fold resistance),++++ (‘+’ per each 10-fold resistance)
B4,+ (‘+’ per each 10-fold resistance),++ (‘+’ per each 10-fold resistance),+ (‘+’ per each 10-fold resistance),+ (‘+’ per each 10-fold resistance),++ (‘+’ per each 10-fold resistance),+ (‘+’ per each 10-fold resistance),++ (‘+’ per each 10-fold resistance)
B5,+ (‘+’ per each 10-fold resistance),++++ (‘+’ per each 10-fold resistance),++ (‘+’ per each 10-fold resistance),++ (‘+’ per each 10-fold resistance),+++ (‘+’ per each 10-fold resistance),++ (‘+’ per each 10-fold resistance),+++ (‘+’ per each 10-fold resistance)
B6,+ (‘+’ per each 10-fold resistance),++++ (‘+’ per each 10-fold resistance),+ (‘+’ per each 10-fold resistance),++ (‘+’ per each 10-fold resistance),++++ (‘+’ per each 10-fold resistance),++++ (‘+’ per each 10-fold resistance),++++ (‘+’ per each 10-fold resistance)
B7,++ (‘+’ per each 10-fold resistance),++++ (‘+’ per each 10-fold resistance),+++ (‘+’ per each 10-fold resistance),+++++ (until ‘+++++’ as maximal resistance),++++ (‘+’ per each 10-fold resistance),++++ (‘+’ per each 10-fold resistance),++++ (‘+’ per each 10-fold resistance)
